# Publication PMC9935901, “B-lymphoid tyrosine kinase-mediated FAM83A phosphorylation elevates pancreatic tumorigenesis through interacting with β-catenin” (Signal Transduction and Targeted Therapy, 2023)
# Entries after “also recorded” stand apart in the source; their conditions may differ.
# Legend:
# β-catenin stability = experiment: β-catenin protein stability upon CHX treatment in PANC-1 cells; assay type: cell-based, human; conditions: peptide treatment or GFP-fusion transfection, n = 3
# Procedure: Fig. 8 Peptides disrupting FAM83A-β-catenin interaction inhibit Wnt/β-catenin signaling. a Identification of β-catenin binding α-helical peptide(s) in FAM83A DUF1669 (140aa–210aa) region. The secondary structure of the FAM83A DUF1669 (140aa–210aa) region was analyzed based on the PDB data (4urj). b The FaPC, FaP1, FaP2, and FaP3 fragments were constructed into pEGFP-C1 expression vector connection with a flexible linker ((GGGGS)n). The interactions between β-catenin and the four fragments were evaluated with Co-IP assays in HEK293T cells (n = 3). c, d The predicted docking model of FaP2, FaP3 with β-catenin 530–666 aa region. e, f Kinetic interactions of cell-penetrating peptide TAT-linked peptides with β-catenin was determined by surface plasmon resonance analyses. g Effect of CP-FaP2 and CP-FaP3 on β-catenin-FAM83A and β-catenin-TCF4 interactions in PANC-1 cells. Cells were treated with control (CP-FaPC), CP-FaP2, and CP-FaP3 (5 μM) for 24 hours. Cell lysates were used for IP and western blotting with the indicated antibodies (n = 3). h The schematic diagram of 7TGC plasmid construction and the fluorescence images of PANC-1 cells with control, CP-FaP2, and CP-FaP3 treatment. […]
# [1] = test system: β-catenin ubiquitination (HEK293T cells); experiment: β-catenin ubiquitination in HEK293T cells; assay type: cell-based; conditions: GFP-fusion transfection, n = 3
# [2] = test system: β-catenin destruction complex; experiment: Co-IP, β-catenin with AXIN1 and GSK3β in PANC-1 cells; assay type: cell-based, human; conditions: peptide treatment or GFP-fusion transfection, n = 3
# FAM83A expression = FAM83A expression after Wnt3a treatment in PANC-1 cells; assay type: cell-based, human
# Excerpt: Fig. 7 FAM83A is a direct downstream target of Wnt/β-catenin signaling and forms positive feedback in pancreatic cancer cells. a–d Representative western blotting images of the protein and mRNA levels of FAM83A after Wnt3a treatment for indicated concentrations and times in PANC-1 cells (n = 3). e, f The protein and mRNA levels of FAM83A after β-catenin knockdown in PANC-1 cells. Cell lysates were used for western blotting with the indicated antibodies (n = 3). g FAM83A gene promoter-reporter luciferase activity in HEK293T cells with or without β-catenin overexpression (left) and PANC-1 cells with or without β-catenin knockdown (right) (n = 6). h The schematic diagram of FAM83A gene promoter truncation and deletion generation. i PACN-1 cells were subjected to chromatin immunoprecipitation using antibodies against TCF4 and IgG, and the fold change of TCF/IgG was quantified (n = 3). j Predicted TCF4/LEF-binding sequence in the FAM83A gene promoter from the JASPAR website. k Schematic diagram of the generated luciferase report plasmids and the relative luciferase activity after transfection with the plasmids in HEK293T cells with or without Wnt3a treatment (n = 6). l A ChIP experiment was used to detect binding between the β-catenin-TCF4 complex and the predicted TCF/LEF-binding element in the FAM83A promoter (TBE1 and TBE2). […]
# FAM83A localization = experiment: FAM83A nuclear translocation upon Wnt3a treatment; assay type: cell-based; conditions: confocal microscopy, nucleo-plasmic separation; Wnt3a 100 ng/mL; HEK293T, PANC-1
# Procedure: Protein interactions were analyzed by western blotting (n = 3). Scale bars: 10 µm. *P < 0.05; **P < 0.01; ***P < 0.001. Data were presented as mean ± SD
# Protein interactions were analyzed by western blotting (n = 3). c The level of β-catenin ubiquitination with or without Flag-tagged FAM83A overexpression or BLK kinase knockdown after MG132 treatment in HEK293T cells. Cell lysates were used for IP and western blotting with the indicated antibodies (n = 3). d The level of β-catenin ubiquitination with or without Flag-tagged FAM83A, Y138A, or Y138D mutants overexpression after MG132 treatment in HEK293T cells. […] Cell lysates were used for IP and western blotting with the indicated antibodies (n = 3). f The localization of Flag-tagged FAM83A and its Y138A, Y138D mutants in HEK293T cells were analyzed with confocal microscopy. g The protein level of cytoplasmic and nuclear β-catenin in HEK293T cells with or without Flag-tagged FAM83A, Y138A, or Y138D mutants transfection and Wnt3a treatment. […]
Molecule,stability of β-catenin (β-catenin stability),β-catenin ubiquitination [1],assembly of β-catenin destruction complex [2],FAM83A mRNA level (FAM83A expression),FAM83A protein level (FAM83A expression; n = 3),FAM83A nuclear translocation (FAM83A localization)
"GFP-FaP2: FaP2 fused with GFP via a flexible linker ((GGGGS)n), pEGFP-C1 expression vector, transfected (protein, left off: EGFP (from the vector pEGFP-C1), end not stated, kept, FaP2 fused with GFP via a flexible linker ((GGGGS)n), pEGFP-C1 expression vector, transfected) ASAEKPYLKEKSSATVYFQTVKHNNIRDLVRRCITRTSQVLVILMDVFTDVEIFCDILEAANKRGVFVCVLLDQGGVKLFQEMCDKVQISDSHLKNISIRSVEGEIYCAKSGRKFAGQIREKFIISDWRFVLSGSYSFTWLCGHVHRNILSKFTGQAVELFDEEFRHLYASSKPVMGLKSPRL",decreased,improved,improved,,,
"GFP-FaP3: FaP3 fused with GFP via a flexible linker ((GGGGS)n), pEGFP-C1 expression vector, transfected (protein, left off: EGFP (from the vector pEGFP-C1), end not stated, kept, FaP3 fused with GFP via a flexible linker ((GGGGS)n), pEGFP-C1 expression vector, transfected) ASAEKPYLKEKSSATVYFQTVKHNNIRDLVRRCITRTSQVLVILMDVFTDVEIFCDILEAANKRGVFVCVLLDQGGVKLFQEMCDKVQISDSHLKNISIRSVEGEIYCAKSGRKFAGQIREKFIISDWRFVLSGSYSFTWLCGHVHRNILSKFTGQAVELFDEEFRHLYASSKPVMGLKSPRL",decreased,improved,improved,,,
"Wnt3a: Wnt agonist, Abcam ab153563 (protein, UniProt P56704 19-352, looked up) Protein Wnt-3a: SYPIWWSLAVGPQYSSLGSQPILCASIPGLVPKQLRFCRNYVEIMPSVAEGIKIGIQECQHQFRGRRWNCTTVHDSLAIFGPVLDKATRESAFVHAIASAGVAFAVTRSCAEGTAAICGCSSRHQGSPGKGWKWGGCSEDIEFGGMVSREFADARENRPDARSAMNRHNNEAGRQAIASHMHLKCKCHGLSGSCEVKTCWWSQPDFRAIGDFLKDKYDSASEMVVEKHRESRGWVETLRPRYTYFKVPTERDLVYYEASPNFCEPNPETGSFGTRDRTCNVSSHGIDGCDLLCCGRGHNARAERRREKCRCVFHWCCYVSCQECTRVYDVHTCK",,,,elevated both the protein and mRNA levels of FAM83A in dose- and time-dependent manners,elevated both the protein and mRNA levels of FAM83A in dose- and time-dependent manners,FAM83A shifted from the cell cytoplasm to nucleus upon Wnt3a treatment; also recorded: increased the nuclear translocation of FAM83A
